Experimental data from patent publication US20180194862A1 (AbbVie / Abbott, published 2018).
Where two headings read alike, the source gives them in different places. Blank lines part the entries; values can stand above or below the binder they belong to.

What was measured:
mouse 4-1BB [1] = biological target: T1, mouse 4-1BB (mouse, UniProt P20334 24-187); experiment: SPR (Biacore)
T1 construct: also called mu4-1BB; murine 4-1BB
T1 sequence (looked up): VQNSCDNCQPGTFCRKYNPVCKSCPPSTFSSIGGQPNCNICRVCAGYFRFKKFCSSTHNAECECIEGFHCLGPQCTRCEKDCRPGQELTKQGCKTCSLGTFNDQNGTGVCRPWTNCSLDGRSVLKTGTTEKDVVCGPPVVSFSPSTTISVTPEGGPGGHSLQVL

human 4-1BB [2] = biological target: T2, human 4-1BB (human, UniProt Q07011 24-186); experiment: SPR
T2 construct: SPR (Biacore) analyte; also called hu4-1BB

mouse 4-1BB [3] = biological target: T1, mouse 4-1BB; experiment: SPR
cynomolgus 4-1BB = biological target: T3, cynomolgus 4-1BB (cynomolgus, UniProt A9YYE7 24-186); experiment: SPR
T3 sequence: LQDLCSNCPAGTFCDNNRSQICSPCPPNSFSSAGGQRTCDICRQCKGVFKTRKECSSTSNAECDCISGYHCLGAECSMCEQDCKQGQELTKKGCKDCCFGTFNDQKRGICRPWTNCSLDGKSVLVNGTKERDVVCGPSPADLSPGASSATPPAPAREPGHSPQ

human 4-1BB [4] = biological target: T2, human 4-1BB; experiment: SPR; remark: listed apart in the source
mouse 4-1BB [5] = biological target: T1, mouse 4-1BB; experiment: SPR; remark: listed apart in the source
[6] = biological target: human CD40 on cells (HEK293 stable transfectants, HEK-Blue CD40 cells, human B cells, monocytic cells, … (human, UniProt P25942 21-277)); experiment: cell-based or functional assay
human 4-1BB [7] = biological target: T2, human 4-1BB; experiment: SPR (Biacore)
[8] = biological target: T4, soluble form of the extracellular domain of cynomolgus (cyno) CD40 (Creative BioMart) (cynomolgus, UniProt G7PG38 21-193); experiment: SPR
T4 construct: extracellular domain; also called Cynomolgus CD40

[9] = biological target: T5, soluble form of the extracellular domain of human CD40 (Creative BioMart) (human, UniProt P25942 21-193); experiment: SPR
T5 construct: Bought

human mesothelin = biological target: T6, human mesothelin (human, UniProt Q13421 296-580, limits assumed); experiment: SPR
T6 construct: also called Human MSLN
T6 sequence (Q13421 other isoform, or with tags, fused parts or gaps limits assumed): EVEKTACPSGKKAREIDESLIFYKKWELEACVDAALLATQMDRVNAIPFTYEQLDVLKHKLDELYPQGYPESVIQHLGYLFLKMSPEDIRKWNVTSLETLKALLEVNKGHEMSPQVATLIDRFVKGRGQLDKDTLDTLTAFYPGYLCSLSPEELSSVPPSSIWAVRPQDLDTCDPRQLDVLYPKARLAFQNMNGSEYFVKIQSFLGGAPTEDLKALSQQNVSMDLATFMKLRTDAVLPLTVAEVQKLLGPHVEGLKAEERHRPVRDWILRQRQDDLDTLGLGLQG

T5 sequence (P25942 21-193 limits assumed): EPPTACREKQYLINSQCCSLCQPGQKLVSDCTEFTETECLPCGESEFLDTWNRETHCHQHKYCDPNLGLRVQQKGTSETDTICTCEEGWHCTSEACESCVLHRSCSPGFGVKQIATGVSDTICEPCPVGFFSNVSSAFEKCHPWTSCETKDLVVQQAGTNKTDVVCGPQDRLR
human CD40 on cells (HEK293 stable transfectants, HEK-Blue CD40 cells, human B cells, monocytic cells, …, sequence (P25942 21-277 limits assumed): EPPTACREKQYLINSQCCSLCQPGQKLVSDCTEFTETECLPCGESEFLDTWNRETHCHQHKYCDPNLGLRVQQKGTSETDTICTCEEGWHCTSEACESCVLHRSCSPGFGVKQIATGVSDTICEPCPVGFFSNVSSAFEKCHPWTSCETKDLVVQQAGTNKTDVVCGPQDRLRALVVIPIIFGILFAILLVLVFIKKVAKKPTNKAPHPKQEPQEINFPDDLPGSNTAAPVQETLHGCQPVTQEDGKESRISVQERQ

Kd (mouse 4-1BB [1]): 15 nM
B1: TABBY105-rIgG2a (antibody, V domains shown)
VH: EVQLVESGGGLVQPGRSMKLSCAASGFTFNNYDMAWVCQAPKRGLEWVATISYDGSTTYYRDSVKGRFTFSRDNAKSTLYLQMDSLRSEDTATYYCARVGAGDFDYWGQGVMVTVSS
VL: DIRMTQSPVSLSTSLGETVNIECLASEDIYSDLAWYQQKPGKSPQLLIYSTNTLQNGVPSRFSGSGSGTQYSLKINSLQSEDVATYFCQQNNNYPYTFGAGTKLELK
notes: rat IgG2a, kappa

Kd (human 4-1BB [2]): 130 nM | koff (human 4-1BB [2]): 0.074 s⁻¹ | kon (human 4-1BB [2]): 570000 M⁻¹ s⁻¹ | Kd (mouse 4-1BB [3]): 17 nM | koff (mouse 4-1BB [3]): 0.036 s⁻¹ | kon (mouse 4-1BB [3]): 2.2e+06 M⁻¹ s⁻¹
B2: hu106-1 (antibody, V domains shown)
VH: EVQLVQSGAEVKKPGSSVKVSCKASGYTFTSYYIYWVRQAPGQGLEWIGNIWPGNGGTFYGEKFMGRATFTADTSTSTAYMELSSLRSEDTAVYYCARRPDYSGDDYFDYWGQGTLVTVSS
VL: NVMLTQPHSVSESPGKTVTISCKLNSGNIGSYYVHWYQQRPGSSPTTMIYRDDKRPDGVPDRFSGSIDSSSNSASLTISGLKTEDEADYYCHSYDSTITPVFGGGTKLTVL
notes: human IgG1 constant regions with L234A and L235A

Kd (mouse 4-1BB [1]): 6.7 nM | Kd (cynomolgus 4-1BB): 0.36 nM | koff (cynomolgus 4-1BB): 0.00013 s⁻¹ | kon (cynomolgus 4-1BB): 350000 M⁻¹ s⁻¹ | Kd (human 4-1BB [4]): 0.32 nM | koff (human 4-1BB [4]): 0.00014 s⁻¹ | kon (human 4-1BB [4]): 450000 M⁻¹ s⁻¹ | Kd (mouse 4-1BB [5]): 6.7 nM | koff (mouse 4-1BB [5]): 0.0016 s⁻¹ | kon (mouse 4-1BB [5]): 240000 M⁻¹ s⁻¹
B3: TABBY107-rIgG1 (antibody, V domains shown)
VH: QVKLVQSGAALVKPGASVKMSCKASDYTFNDYWVSWVKQRHGESLEWIGEIYPNSGATNFNGKFRGKATLTVDNPTSTAYMELSRLTSEDSAIYYCTREYTRDWFAYWGQGTLVTVSS
VL: DVVLTQTPSILSATIGQSVSISCRSSQSLLDSDGNTYLYWFLQRPGQSPQRLIYLVSNLGSGVPNRFSGSGSGTDFTLKISGVEAEDLGIYYCMQPTHAPYTFGAGTKLELK
notes: rat IgG1, kappa

Kd (mouse 4-1BB [1]): 0.36 nM
B9: TABBY108-rIgG1 (antibody, V domains shown)
VH: EIQLQESGPGLVRPSQSLSLACSVTGYTITSAYDWSWIRKFPGNKMEWMGYIAYIGFTNSNPSLKSRISITRDTSKNQFFLQLKSVTTEDTATYYCARWSSYIPRYFDFWGPGTMVTVSS
VL: QAVLTQPNSVSTSLGSTVKLSCTITSGNIEDNFVHWYQHYEGRSPTTMIHNDDKRPDGVPDRFSGSIDSSSNSAFLTINNVEIEDEAIYFCHSYVSSINIFGGGTKLTVL
notes: rat IgG1

Kd (human 4-1BB [2]): 0.16 nM | koff (human 4-1BB [2]): 6.5e-05 s⁻¹ | kon (human 4-1BB [2]): 410000 M⁻¹ s⁻¹ | Kd (mouse 4-1BB [3]): 5.2 nM | koff (mouse 4-1BB [3]): 0.0013 s⁻¹ | kon (mouse 4-1BB [3]): 240000 M⁻¹ s⁻¹
B13: hu107-1 (antibody, V domains shown)
VH: EVQLVQSGAEVKKPGSSVKVSCKASDYTFNDYWVSWVRQAPGQGLEWIGEIYPNSGATNFNGKFRGRATLTVDNSASTAYMELSSLRSEDTAVYYCTREYTRDWFAYWGQGTLVTVSS
VL: DVVLTQSPLSLPVTLGQPASISCRSSQSLLDSDGNTYLYWFQQRPGQSPRRLIYLVSNLGSGVPDRFSGSGSGTDFTLKISRVEAEDVGVYYCMQPTHAPYTFGQGTKLEIK
notes: as for B2

Kd (mouse 4-1BB [1]): 1.6 nM | Kd (cynomolgus 4-1BB): 18 nM | koff (cynomolgus 4-1BB): 0.022 s⁻¹ | kon (cynomolgus 4-1BB): 1.2e+06 M⁻¹ s⁻¹ | Kd (human 4-1BB [4]): 12 nM | koff (human 4-1BB [4]): 0.026 s⁻¹ | kon (human 4-1BB [4]): 2.2e+06 M⁻¹ s⁻¹ | Kd (mouse 4-1BB [5]): 1.6 nM | koff (mouse 4-1BB [5]): 0.013 s⁻¹ | kon (mouse 4-1BB [5]): 8.1e+06 M⁻¹ s⁻¹
B14: TABBY106-rIgG1 (antibody, V domains shown)
VH: QVQLQQSGAELAKPGTSVKLSCKASGYTFTSYYIYWVKQRPGQGLEWIGNIWPGNGGTFYGEKFMGKATFTADTSSSTAYMLLGSLTPEDSAYYFCARRPDYSGDDYFDYWGQGVLVTVSS
VL: QVVLTQPKSVSTSLKSTVKLSCKLNSGNIGSYYVHWYQQHAGRSPTTMIYRDDKRPDGVPDRFSGSIDSSSNSAFLTINNVQTEDDAIYFCHSYDSTITPVFGGGTKLTVL
notes: rat IgG1, lambda

The next lines start with the binder.

B4: CF4 (bispecific antibody, human IgG1, lambda)
heavy: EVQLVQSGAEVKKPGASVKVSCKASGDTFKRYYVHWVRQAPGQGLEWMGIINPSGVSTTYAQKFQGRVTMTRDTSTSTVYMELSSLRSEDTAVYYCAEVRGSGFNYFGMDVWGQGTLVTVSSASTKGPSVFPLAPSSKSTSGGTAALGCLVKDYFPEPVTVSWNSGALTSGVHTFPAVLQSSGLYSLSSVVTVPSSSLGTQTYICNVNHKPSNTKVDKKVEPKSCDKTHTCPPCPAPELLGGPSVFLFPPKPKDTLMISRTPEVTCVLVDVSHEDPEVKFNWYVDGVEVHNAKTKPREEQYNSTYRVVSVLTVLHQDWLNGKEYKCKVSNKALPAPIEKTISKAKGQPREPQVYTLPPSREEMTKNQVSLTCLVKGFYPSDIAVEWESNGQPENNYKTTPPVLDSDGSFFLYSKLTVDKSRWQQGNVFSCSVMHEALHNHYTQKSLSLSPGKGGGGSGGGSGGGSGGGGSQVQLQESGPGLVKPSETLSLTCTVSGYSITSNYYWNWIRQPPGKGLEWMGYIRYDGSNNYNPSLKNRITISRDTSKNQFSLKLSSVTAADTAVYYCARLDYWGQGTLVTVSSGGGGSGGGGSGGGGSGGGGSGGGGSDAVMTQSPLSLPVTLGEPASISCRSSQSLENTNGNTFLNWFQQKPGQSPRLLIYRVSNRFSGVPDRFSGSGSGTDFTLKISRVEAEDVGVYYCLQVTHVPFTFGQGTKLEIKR
light: SYELTQPPSVSVSPGQTASITCSGDKLGDKYASWYQQKPGQSPVLVIYQDNRRPSGIPERFSGSNSGNTATLTISGTQAMDEADYYCQAWDSDTYVFGTGTKVTVLGQPKAAPSVTLFPPSSEELQANKATLVCLISDFYPGAVTVAWKADSSPVKAGVETTTPSKQSNNKYAASSYLSLTPEQWKSHRSYSCQVTHEGSTVEKTVAPTECS
Max. IL-12p70, dendritic cells with cell-surface mesothelin [6]: 50 pg/mL

B5: CF9 (bispecific antibody, human IgG1, lambda)
heavy: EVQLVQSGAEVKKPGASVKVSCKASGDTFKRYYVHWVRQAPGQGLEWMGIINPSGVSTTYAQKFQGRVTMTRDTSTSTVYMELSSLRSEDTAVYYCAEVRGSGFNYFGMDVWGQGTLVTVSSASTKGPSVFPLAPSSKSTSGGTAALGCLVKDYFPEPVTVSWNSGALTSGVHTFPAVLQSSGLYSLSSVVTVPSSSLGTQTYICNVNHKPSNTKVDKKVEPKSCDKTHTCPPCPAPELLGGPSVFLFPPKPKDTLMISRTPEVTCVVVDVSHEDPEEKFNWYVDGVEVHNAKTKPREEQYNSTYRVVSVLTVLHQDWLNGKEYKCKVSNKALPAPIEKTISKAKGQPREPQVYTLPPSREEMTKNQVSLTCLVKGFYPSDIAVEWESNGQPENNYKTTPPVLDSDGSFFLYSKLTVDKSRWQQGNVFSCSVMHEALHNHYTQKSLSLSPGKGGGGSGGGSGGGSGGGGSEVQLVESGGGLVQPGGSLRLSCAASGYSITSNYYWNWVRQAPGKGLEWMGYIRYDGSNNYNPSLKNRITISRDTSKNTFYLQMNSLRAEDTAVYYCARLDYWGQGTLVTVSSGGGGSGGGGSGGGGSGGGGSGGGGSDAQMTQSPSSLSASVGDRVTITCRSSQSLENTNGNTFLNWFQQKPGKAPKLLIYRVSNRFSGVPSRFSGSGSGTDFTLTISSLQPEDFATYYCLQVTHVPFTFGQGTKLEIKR
light: B4 light
Max. IL-12p70, dendritic cells with cell-surface mesothelin [6]: 120 pg/mL

B6: CF5 (bispecific antibody, human IgG1, lambda)
heavy: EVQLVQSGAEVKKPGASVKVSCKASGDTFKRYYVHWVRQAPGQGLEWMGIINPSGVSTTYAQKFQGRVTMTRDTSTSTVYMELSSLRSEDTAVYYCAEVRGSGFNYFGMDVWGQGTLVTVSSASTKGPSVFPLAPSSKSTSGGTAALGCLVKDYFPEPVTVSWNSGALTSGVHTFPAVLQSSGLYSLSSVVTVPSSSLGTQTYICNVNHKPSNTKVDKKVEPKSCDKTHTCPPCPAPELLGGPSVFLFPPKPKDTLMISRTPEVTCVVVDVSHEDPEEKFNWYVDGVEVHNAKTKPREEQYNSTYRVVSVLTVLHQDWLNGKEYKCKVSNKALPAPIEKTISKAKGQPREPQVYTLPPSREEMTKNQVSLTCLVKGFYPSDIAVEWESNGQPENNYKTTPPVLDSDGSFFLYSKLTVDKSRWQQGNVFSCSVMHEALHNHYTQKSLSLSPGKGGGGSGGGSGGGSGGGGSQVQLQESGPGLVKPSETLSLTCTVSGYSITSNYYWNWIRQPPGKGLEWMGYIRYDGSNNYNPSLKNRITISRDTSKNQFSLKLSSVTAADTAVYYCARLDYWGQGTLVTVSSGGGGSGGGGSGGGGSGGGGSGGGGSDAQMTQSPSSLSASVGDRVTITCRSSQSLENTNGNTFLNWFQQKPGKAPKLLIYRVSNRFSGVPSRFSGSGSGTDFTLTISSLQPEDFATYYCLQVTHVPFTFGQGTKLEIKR
light: B4 light
Max. IL-12p70, dendritic cells with cell-surface mesothelin [6]: 60 pg/mL

B7: TABBY1.1-mIgG1 (antibody, V domains shown)
VH: EVQLVESGGDLVKPGGSQKLSCAASGFTFSSYGMSWVRQTPDRRLEWVAAIISGGSYTYYPDSVKGRFTISRDNAKNTLYLQMNSLKSEDTAMYYCARHGGYDGNYDYYAMDYWGQGTSVTVSS
VL: DVLMTQTPLSLPVSLGDQASISCRSSQSIVDSDGITYLEWYLQKPGQSPKLLIYKVSNRFSGVPDRFSGSGSGTDFTLRISRVEAEDLGLYYCFQVSHVPWTFGGGTKLEIK
notes: mouse IgG1
Kd (human 4-1BB [7]): 2 nM

B8: TABBY3-mIgG2b (antibody, V domains shown)
VH: GVQLVESGGGLVQPGGSRKLSCAASGFTFSSFGMHWFRQAPEKGLEWVAYISSGSSTIYYADTLKGRFTISRDNPKNTLFLQMTSLRSEDTAMYYCARDWVDYWGQGTTLTVSS
VL: DIVITQDELSNPVTSGESASISCRSSKSLLYKDGKTYLNWFLQRPGQSPQLLIYLMSTRASGVSDRFTGSGSGTDFTLEISRVKAEDVGVYYCQQPVEYPYTFGGGTKLEIK
notes: mouse IgG2b
Kd (human 4-1BB [7]): 6.6 nM

B10: V5-2 (bispecific antibody)
chain 1: EVQLQESGPGLVKPSETLSLTCTVSGYSITSNYYWNWIRQPPGKGLEWMGYIRYDGSNNYNPSLKNRVTISRDTSKNQFSLKLSSVTAADTAVYYCARLDYWGQGTTVTVSS
chain 2: DAVMTQTPLSLSVTPGQPASISCRSSQSLENTNGNTFLNWYLQKPGQSPQLLIYRVSNRFSGVPDRFSGSGSGTDFTLKISRVEAEDVGVYYCLQVTHVPFTFGQGTKLEIK
chain 3: EVQLVQSGAEVKKPGASVKVSCKASGDTFKRYYVHWVRQAPGQGLEWMGIINPSGVSTTYAQKFQGRVTMTRDTSTSTVYMELSSLRSEDTAVYYCAEVRGSGFNYFGMDVWGQGTLVTVSS
chain 4: SYELTQPPSVSVSPGQTASITCSGDKLGDKYASWYQQKPGQSPVLVIYQDNRRPSGIPERFSGSNSGNTATLTISGTQAMDEADYYCQAWDSDTYVFGTGTKVTVL
Kd [8]: 120 nM | koff [8]: 0.11 s⁻¹ | kon [8]: 940000 M⁻¹ s⁻¹ | Kd [9]: 150 nM | koff [9]: 0.25 s⁻¹ | kon [9]: 1.7e+06 M⁻¹ s⁻¹ | Kd (human mesothelin): 2 nM | koff (human mesothelin): 2.8e-05 s⁻¹ | kon (human mesothelin): 14000 M⁻¹ s⁻¹

B11: V6-8 (bispecific antibody)
chain 1: B10 chain 1
chain 2: DAQMTQSPSSLSASVGDRVTITCRSSQSLENTNGNTFLNWFQQKPGKAPKLLIYRVSNRFSGVPSRFSGSGSGTDFTLTISSLQPEDFATYYCLQVTHVPFTFGQGTKLEIK
chain 3: EVQLLESGGGLVQPGGSLRLSCAASGFTFSSYAMSWVRQAPGKGLEWVSAISGGGGRTYYADSVKGRFTISRDNSKNTLYLQMNSLRAEDTAVYYCAREEMAFRAYRFDIWGQGTLVTVSS
chain 4: not shown
Kd [8]: 11 nM | koff [8]: 0.013 s⁻¹ | kon [8]: 1.3e+06 M⁻¹ s⁻¹ | Kd [9]: 14 nM | koff [9]: 0.014 s⁻¹ | kon [9]: 970000 M⁻¹ s⁻¹ | Kd (human mesothelin): 11 nM | koff (human mesothelin): 0.0015 s⁻¹ | kon (human mesothelin): 130000 M⁻¹ s⁻¹

B12: TABBY104-rIgG1 (antibody, V domains shown)
VH: QVTLKESGPGILQPSQTLSLTCTFSGFSLSTDGLGVTWIRQPSGKGLEWLANIWWDDDKDYNPSLKNRLTISKDTSNPQAFLKITNVDTADTATYYCARIVPNSGHEDYWGQGVMVIVSS
VL: DIQMTQSPSFLSASVGDRVTINCKASQNINRYLNWYQQKLGEAPKLLMYNTNSMQTGIPSRFSGSGSGTDFTLTISSLQPEDVATYFCLQHNSWPRTFGGGTKLELK
notes: rat IgG1, kappa
Kd (mouse 4-1BB [1]): 0.14 nM
